This series concerns p120 catenin expressed from a transfected plasmid (exogenous p120, HA-tagged in Example 1).

On to “ZC1 kinase, over-expressed from a plasmid (active full-length ZC1)”, for which the “in vitro phosphorylation (32P-ATP, autoradiography)” value is reported as “p120 immunoprecipitated from cells co-expressing ZC1 also showed phosphorylation of p120 in vitro by associated ZC1”.

Source of the values: patent publication US20050276757.
